The values that follow are results of earlier work, collected in publication PMC5408189.

This data set has as its target integrin α5β1 (Homo sapiens) (UniProt P08648). The data set is described as follows: surface plasmon resonance.
Sequence of UniProt P08648 (P08648 42-1049, chain 1 of 2): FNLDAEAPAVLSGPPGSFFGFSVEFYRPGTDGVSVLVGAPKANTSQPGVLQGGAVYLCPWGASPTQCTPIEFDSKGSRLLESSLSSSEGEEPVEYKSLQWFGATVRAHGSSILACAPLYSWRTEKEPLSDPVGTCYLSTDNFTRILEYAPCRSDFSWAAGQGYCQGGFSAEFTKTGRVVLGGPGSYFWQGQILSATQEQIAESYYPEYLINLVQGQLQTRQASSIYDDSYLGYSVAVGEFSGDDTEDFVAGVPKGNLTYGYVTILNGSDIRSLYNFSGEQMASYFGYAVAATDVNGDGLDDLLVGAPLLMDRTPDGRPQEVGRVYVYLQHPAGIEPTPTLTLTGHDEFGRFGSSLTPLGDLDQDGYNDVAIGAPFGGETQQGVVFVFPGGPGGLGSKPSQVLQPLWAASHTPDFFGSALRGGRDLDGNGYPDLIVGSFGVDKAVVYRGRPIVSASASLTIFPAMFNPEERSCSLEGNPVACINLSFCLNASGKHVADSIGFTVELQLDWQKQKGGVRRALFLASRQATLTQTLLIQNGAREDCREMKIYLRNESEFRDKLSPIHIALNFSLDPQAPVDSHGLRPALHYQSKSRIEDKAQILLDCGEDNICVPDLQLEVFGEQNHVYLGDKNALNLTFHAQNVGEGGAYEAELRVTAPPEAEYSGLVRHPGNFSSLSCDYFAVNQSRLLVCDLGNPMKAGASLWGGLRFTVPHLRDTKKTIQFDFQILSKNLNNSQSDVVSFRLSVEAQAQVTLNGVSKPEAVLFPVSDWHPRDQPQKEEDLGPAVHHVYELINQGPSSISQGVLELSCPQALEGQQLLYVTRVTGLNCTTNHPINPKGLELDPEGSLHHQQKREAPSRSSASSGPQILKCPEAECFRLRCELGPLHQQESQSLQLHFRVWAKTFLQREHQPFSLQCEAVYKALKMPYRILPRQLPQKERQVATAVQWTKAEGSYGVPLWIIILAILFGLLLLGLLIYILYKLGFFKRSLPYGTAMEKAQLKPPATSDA
Sequence of UniProt P08648 (P05556 21-798, chain 2 of 2, further chain): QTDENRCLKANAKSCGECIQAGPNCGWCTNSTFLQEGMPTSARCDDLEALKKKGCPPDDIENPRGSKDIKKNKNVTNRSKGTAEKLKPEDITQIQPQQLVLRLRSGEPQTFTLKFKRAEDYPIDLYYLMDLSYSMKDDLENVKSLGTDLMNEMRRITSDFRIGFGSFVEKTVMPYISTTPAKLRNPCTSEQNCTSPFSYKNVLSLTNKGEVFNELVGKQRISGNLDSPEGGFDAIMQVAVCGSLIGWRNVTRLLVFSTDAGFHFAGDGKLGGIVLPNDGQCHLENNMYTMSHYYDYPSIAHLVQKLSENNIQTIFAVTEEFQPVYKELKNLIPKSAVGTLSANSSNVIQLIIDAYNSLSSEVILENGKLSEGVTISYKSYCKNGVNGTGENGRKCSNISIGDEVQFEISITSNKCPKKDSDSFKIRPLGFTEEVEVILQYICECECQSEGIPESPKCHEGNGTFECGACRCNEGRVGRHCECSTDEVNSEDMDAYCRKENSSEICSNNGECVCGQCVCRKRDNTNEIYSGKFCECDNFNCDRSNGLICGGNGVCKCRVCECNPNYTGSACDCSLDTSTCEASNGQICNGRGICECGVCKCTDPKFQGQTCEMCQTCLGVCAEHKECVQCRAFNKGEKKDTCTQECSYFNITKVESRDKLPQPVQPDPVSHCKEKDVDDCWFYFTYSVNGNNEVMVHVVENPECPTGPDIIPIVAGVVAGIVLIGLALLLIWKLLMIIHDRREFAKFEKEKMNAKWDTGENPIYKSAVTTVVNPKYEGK

Regarding CagA (from UniProt P55980), the dissociation constant (Kd) was 0.15 nM.

As a reminder, the Kd is the equilibrium constant for the complex coming apart.
